The data set concerns Cre recombinase (Bacteriophage P1?). The experiment in a line: cleavage_in_vitro. The settings on record: 73 nM Cre, 37 C, 30 min; approximate value; ethidium bromide inhibits.

The results in this text go back to US12371725.

“pLoxFL BamHI digest (linear, two loxP sites)”: the activity (% recombination) was found to be 74.
